# Data from PMC2895429.
# Molecular target: cardiac ryanodine receptor (RyR2) in permeabilized rat ventricular myocytes (rat (endogenous in ventricular myocytes)) (UniProt B0LPN4)
# Chain of UniProt B0LPN4 (B0LPN4 whole entry): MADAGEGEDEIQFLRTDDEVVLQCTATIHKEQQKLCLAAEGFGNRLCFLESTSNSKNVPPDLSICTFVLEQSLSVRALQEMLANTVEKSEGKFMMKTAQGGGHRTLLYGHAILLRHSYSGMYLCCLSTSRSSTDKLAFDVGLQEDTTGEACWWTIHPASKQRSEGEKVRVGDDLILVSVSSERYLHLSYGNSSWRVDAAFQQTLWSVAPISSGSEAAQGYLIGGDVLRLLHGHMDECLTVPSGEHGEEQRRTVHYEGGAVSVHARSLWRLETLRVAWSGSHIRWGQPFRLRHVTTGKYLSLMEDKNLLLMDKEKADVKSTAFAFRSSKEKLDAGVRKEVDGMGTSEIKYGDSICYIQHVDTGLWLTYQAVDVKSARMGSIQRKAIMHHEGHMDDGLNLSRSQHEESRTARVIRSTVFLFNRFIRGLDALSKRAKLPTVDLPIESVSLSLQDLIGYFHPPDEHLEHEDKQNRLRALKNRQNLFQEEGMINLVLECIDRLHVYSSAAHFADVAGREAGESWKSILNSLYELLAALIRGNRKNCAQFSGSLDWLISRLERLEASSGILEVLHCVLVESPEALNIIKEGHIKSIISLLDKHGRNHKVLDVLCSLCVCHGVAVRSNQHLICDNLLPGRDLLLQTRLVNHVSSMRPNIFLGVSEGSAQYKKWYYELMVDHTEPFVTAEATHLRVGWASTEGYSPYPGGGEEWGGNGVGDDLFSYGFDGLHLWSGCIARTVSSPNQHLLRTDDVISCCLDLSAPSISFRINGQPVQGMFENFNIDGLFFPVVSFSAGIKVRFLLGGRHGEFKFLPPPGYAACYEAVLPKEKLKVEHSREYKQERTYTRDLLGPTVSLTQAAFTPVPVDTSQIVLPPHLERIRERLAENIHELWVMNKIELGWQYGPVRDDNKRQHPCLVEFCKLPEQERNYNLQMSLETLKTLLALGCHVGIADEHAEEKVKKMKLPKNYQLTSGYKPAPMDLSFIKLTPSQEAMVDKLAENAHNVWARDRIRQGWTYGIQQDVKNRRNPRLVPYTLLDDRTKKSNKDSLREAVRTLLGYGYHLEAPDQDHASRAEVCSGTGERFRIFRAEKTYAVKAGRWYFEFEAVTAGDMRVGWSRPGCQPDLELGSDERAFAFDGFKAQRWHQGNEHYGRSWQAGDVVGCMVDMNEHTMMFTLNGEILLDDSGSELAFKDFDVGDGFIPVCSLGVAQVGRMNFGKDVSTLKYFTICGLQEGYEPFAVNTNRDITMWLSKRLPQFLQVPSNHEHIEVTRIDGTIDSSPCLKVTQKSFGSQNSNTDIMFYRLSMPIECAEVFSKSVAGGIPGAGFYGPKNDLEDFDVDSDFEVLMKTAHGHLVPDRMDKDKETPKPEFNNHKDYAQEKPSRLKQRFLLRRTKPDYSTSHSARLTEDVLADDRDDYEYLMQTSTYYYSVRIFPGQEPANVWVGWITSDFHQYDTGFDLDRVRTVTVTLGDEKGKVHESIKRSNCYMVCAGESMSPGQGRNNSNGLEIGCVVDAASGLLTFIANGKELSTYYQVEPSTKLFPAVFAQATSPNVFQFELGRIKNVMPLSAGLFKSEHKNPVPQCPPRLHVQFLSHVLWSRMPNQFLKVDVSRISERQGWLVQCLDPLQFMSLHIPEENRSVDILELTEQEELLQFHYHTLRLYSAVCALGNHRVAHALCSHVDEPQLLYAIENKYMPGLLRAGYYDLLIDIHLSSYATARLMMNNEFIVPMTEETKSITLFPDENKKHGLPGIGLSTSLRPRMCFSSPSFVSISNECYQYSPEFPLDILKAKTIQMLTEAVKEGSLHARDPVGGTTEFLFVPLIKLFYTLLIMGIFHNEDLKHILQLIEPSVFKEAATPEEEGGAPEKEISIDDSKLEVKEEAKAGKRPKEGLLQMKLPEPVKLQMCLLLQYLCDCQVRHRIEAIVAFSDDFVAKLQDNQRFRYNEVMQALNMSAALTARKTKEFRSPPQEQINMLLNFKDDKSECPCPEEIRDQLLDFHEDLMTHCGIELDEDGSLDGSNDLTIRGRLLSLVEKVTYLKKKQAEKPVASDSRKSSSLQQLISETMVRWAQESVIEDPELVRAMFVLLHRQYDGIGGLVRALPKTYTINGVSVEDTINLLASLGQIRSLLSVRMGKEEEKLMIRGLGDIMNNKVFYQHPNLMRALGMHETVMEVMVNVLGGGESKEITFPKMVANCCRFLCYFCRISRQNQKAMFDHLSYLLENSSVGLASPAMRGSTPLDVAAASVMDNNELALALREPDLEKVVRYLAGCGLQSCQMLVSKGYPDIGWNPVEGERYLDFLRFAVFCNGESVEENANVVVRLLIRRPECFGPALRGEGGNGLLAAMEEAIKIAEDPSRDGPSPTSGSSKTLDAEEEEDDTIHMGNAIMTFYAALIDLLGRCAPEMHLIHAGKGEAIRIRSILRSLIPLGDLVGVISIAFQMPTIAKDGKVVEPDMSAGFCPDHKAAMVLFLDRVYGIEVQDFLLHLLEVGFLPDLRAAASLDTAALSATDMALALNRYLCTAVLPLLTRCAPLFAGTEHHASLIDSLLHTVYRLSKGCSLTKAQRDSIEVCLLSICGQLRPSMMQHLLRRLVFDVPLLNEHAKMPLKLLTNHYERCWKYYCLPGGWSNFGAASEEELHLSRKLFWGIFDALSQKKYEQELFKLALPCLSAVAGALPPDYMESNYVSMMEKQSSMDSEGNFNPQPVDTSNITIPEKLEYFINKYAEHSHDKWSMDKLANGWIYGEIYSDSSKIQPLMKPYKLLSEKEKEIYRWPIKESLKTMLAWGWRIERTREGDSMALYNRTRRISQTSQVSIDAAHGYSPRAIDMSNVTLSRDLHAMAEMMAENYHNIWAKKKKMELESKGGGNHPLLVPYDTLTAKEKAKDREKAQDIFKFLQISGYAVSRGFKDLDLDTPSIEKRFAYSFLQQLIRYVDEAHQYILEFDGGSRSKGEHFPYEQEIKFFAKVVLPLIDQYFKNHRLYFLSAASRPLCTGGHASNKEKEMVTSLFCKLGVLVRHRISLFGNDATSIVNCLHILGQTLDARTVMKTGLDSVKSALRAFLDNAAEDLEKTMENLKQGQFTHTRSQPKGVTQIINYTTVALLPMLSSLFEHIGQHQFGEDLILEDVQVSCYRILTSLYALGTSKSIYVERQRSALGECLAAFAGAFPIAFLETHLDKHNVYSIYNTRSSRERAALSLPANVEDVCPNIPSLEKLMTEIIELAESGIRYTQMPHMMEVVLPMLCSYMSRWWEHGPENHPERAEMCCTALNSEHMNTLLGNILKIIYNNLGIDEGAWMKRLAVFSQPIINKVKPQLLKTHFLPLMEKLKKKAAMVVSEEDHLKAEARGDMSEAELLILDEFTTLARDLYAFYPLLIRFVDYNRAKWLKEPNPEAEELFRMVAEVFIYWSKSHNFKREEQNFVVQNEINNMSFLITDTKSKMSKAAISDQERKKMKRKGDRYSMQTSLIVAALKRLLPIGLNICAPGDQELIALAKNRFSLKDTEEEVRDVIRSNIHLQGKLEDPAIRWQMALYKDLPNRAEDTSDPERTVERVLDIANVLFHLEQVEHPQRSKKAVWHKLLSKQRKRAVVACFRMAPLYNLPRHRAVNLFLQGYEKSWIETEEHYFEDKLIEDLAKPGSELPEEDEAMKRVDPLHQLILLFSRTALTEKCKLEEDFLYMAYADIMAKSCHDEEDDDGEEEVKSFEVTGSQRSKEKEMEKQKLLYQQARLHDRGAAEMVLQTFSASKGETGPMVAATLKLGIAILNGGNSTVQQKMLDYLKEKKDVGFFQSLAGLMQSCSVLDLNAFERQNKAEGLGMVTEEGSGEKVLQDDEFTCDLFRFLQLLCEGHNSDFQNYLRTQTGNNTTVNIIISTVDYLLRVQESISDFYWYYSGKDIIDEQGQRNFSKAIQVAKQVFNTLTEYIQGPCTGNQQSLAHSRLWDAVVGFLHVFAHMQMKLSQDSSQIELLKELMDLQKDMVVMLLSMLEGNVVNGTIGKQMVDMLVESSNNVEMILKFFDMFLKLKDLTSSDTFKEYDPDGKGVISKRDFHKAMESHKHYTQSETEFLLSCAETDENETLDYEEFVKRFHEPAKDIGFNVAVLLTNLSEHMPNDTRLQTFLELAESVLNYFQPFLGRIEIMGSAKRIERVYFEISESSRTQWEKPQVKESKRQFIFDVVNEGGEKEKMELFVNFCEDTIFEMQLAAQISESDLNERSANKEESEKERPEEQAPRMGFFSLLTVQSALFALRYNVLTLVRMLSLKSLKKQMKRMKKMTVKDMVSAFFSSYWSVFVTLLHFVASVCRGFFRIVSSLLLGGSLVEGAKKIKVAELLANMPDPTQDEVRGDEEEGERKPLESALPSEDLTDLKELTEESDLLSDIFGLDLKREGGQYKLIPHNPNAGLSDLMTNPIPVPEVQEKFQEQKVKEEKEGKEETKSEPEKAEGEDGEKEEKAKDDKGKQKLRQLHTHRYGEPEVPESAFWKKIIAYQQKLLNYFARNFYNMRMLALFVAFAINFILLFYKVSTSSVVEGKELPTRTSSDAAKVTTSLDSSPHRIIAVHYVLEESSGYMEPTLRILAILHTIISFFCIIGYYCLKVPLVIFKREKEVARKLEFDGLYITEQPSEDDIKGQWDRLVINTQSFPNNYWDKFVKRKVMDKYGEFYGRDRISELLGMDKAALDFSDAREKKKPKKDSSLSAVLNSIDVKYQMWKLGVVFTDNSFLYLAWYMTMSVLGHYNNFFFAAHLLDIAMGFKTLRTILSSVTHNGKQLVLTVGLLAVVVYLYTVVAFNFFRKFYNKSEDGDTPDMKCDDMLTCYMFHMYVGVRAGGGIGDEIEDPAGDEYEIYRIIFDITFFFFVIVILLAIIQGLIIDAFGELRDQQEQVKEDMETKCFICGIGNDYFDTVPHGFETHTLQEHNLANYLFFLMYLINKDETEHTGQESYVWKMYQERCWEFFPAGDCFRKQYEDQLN
substance,measurement,value
non-fluorescent wild type FKBP12.6 (from UniProt P68106 1-108) (natural protein),decrease in Ca spark amplitude in permeabilized rat myocytes,15%
same,decrease in resting Ca spark frequency (CaSpF) in permeabilized rat myocytes,24%
